No end group written: not given here. Hpt = not defined here
B5: b1 domain of neuropilin‐1 (NRP1‐b1) (domain or fragment, human)
chain: FKCMEALGMESGEIHSDQITASSQYSTNWSAERSRLNYPENGWTPGEDSYREWIQVDLGLLRFVTAVGTQGAISKETKKKYYVKTYKIDVSSNGEDWITIKEGNKPVLFQGNTNPTDVVVAVFPKPLITRFVRIKPATWETGISMRFEVYGCKIT
notes: neuropilin-1, human, b1 domain; also called NRP1‐b1 domain; NRP1 b1 domain; source: E. coli Rosetta (DE3), purified (HisTrap, TEV cleavage, Superdex 75, SP FF ion exchange)

How the values were obtained:
[1] = biological target: T1, NRP1‐b1 (Homo sapiens, UniProt O14786); assay: SPR binding of NRP1-b1 in solution to immobilised VEGFs; conditions: VEGF immobilised on CM5 chip, NRP1-b1 0.25 to 64 μM in PBS, 60 s, steady-state, 1:1 interaction, 25 °C, read-out: KD of NRP1‐b1 for immobilized VEGF
T1 construct: the immobilized b1 domain of NRP1 (NRP1‐b1); poly-histidine (TEV-cleavable) (cleaved yes); made in house; host or cells: E. coli Rosetta (DE3)
T1 sequence (O14786 275-424 limits assumed): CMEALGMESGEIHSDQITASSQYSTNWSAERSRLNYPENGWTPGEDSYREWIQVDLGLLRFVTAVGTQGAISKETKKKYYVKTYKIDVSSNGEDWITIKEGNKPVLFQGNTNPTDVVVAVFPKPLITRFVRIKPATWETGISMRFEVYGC
Text: We have previously reported the use of SPR to characterise the interaction between the immobilized b1 domain of NRP1 (NRP1‐b1) and VEGF‐A‐derived peptides,[23] arginine analogues,[26] and small molecules.[27, 28] When we attempted to measure the binding affinity of VEGF‐B isoforms to immobilized NRP1‐b1 we observed non‐saturable binding responses. Increasing concentrations of VEGF‐B over immobilised NRP1 led to response units (RU) higher than the theoretical maximum for a 1 : 1 interaction. The shape of the curves remained consistent at low and high concentration and was not typical of sample precipitation (fuzzy heterogeneous curves, commonly observed only at higher concentrations). […] We consider that the observations are consistent with oligomerization as a form of non‐specific binding. […] To circumvent this, we immobilized VEGF‐B167 and VEGF‐A165 (Figure 2) onto a sensor chip and measured the binding of NRP1‐b1 domain in solution. Using this method, the binding affinity of NRP1‐b1 to immobilized VEGF‐A165 was 100‐fold lower than previously observed when the interaction was measured in reverse experimental configuration.[23] […]
Binding of NRP1‐b1 to VEGFs: Dose responses were obtained by injecting NRP1‐b1 in PBS over the immobilized VEGFs for 60 s, using two‐fold dilutions from 64 to 0.25 μM. Steady‐state binding affinities were calculated assuming a 1 : 1 interaction.

[2] = biological target: T2, NRP1‐b1 binding to VEGF‐B167 (Homo sapiens, UniProt O14786); assay: SPR EG01377 competition assay, NRP1-b1 binding to immobilised VEGF-B167; conditions: NRP1-b1 5 μM, EG01377 6.25 to 50 μM, 60 s
T2 construct: poly-histidine (TEV-cleavable) (cleaved yes); made in house; host or cells: E. coli Rosetta (DE3) (NRP1-b1 only)
T2 sequence (O14786 275-424 limits assumed): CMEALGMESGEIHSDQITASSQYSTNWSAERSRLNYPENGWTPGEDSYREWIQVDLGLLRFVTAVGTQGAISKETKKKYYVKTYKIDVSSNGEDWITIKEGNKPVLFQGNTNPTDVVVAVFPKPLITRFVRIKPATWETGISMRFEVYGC
Text: (§1) We have previously reported the use of SPR to characterise the interaction between the immobilized b1 domain of NRP1 (NRP1‐b1) and VEGF‐A‐derived peptides,[23] arginine analogues,[26] and small molecules.[27, 28] When we attempted to measure the binding affinity of VEGF‐B isoforms to immobilized NRP1‐b1 we observed non‐saturable binding responses. Increasing concentrations of VEGF‐B over immobilised NRP1 led to response units (RU) higher than the theoretical maximum for a 1 : 1 interaction. The shape of the curves remained consistent at low and high concentration and was not typical of sample precipitation (fuzzy heterogeneous curves, commonly observed only at higher concentrations). […] We consider that the observations are consistent with oligomerization as a form of non‐specific binding. […] To circumvent this, we immobilized VEGF‐B167 and VEGF‐A165 (Figure 2) onto a sensor chip and measured the binding of NRP1‐b1 domain in solution. Using this method, the binding affinity of NRP1‐b1 to immobilized VEGF‐A165 was 100‐fold lower than previously observed when the interaction was measured in reverse experimental configuration.[23] […] We then sought to investigate if binding could be blocked by a known inhibitor of the VEGF‐A interaction with NRP1‐b1. […]

[3] = biological target: T3, NRP1‐b1 binding to VEGF‐A165 (Homo sapiens, UniProt O14786); assay: SPR EG01377 competition assay, NRP1-b1 binding to immobilised VEGF-A165; conditions: NRP1-b1 5 μM, EG01377 1.25 to 10 μM, 60 s
T3 construct: poly-histidine (TEV-cleavable) (cleaved yes); made in house; host or cells: E. coli Rosetta (DE3) (NRP1-b1 only)
T3 sequence (O14786 275-424 limits assumed): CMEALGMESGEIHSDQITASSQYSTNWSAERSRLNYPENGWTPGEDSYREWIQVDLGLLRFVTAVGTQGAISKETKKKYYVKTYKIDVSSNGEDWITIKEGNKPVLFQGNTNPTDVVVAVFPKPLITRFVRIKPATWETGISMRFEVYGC
Text: as §1

[4] = system: VEGFs; assay: SPR direct binding of EG01377 to immobilised VEGFs; parameters: species or system human; conditions: immobilised VEGF-A165 and VEGF-B167
Text: as §1

[5] = biological target: B5; assay: SPR; NRP1-b1 immobilised on a CM5 chip by random amine coupling; peptides injected for 60 s, 120 or 180 s dissociation; 25 °C; regeneration with 1 M NaCl; kinetic fit, 1:1 model (MGC0122, MGC0123, MGC0124) or two-state model (MGC0171, MGC0172, MGC0173, MGC0174); conditions: both partners purified
[6] = biological target: T4, VEGF‐B167 (human, UniProt P49765-2 22-188); assay: SPR; VEGF-A165 and VEGF-B167 immobilised on a CM5 chip by random amine coupling; NRP1-b1 in PBS injected for 60 s, two-fold dilutions from 64 to 0.25 μM; 25 °C; steady-state affinity assuming a 1:1 interaction; conditions: both partners purified
T4 construct: vascular endothelial growth factor B, isoform VEGF-B167, human
T4 sequence (looked up): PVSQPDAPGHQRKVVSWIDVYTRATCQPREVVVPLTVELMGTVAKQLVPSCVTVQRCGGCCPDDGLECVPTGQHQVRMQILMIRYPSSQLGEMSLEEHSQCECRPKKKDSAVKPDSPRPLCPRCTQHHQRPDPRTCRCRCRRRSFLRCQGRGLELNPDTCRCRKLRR

[7] = biological target: T5, VEGF‐A165 (human, UniProt P15692-4 1-191); assay: as above; conditions: both partners purified
T5 construct: vascular endothelial growth factor A, isoform VEGF-A165, human
T5 sequence (P15692 other isoform, or with tags, fused parts or gaps): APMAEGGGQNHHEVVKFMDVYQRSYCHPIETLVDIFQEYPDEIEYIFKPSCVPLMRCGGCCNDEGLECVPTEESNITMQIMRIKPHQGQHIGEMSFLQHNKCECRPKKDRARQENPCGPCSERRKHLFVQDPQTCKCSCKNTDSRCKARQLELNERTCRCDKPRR

**Q.** “VEGF‐A165: Vascular endothelial growth factor A isoform 165, immobilised on the sensor chip” was tested. Which Kd [1] did it give?
**A.** 9 µM

**Q.** Which “Effect on binding of NRP1‐b1 to immobilised VEGF‐B167” value [2] does the source give for NCc1ccc(-c2cc3c(c(S(=O)(=O)Nc4ccsc4C(=O)N[C@@H](CCCN=C(N)N)C(=O)O)c2)OCC3)cc1 [EG01377] here?
**A.** reduced the binding

**Q.** And the “Effect on binding of NRP1‐b1 to immobilised VEGF‐A165” value [3]?
**A.** reduced the binding

**Q.** And the “Binding to VEGFs” value [4]?
**A.** No binding was observed

B1: MGC0124 (peptide)
chain: SCKNTDSRCKARQLELNERTCRCDKPRR
modifications: disulfide (positions not given here); not fully specified (N-terminus); also: cyclised by disulphide, Cys pairing not given here
**Q.** B1 was tested. Which Kd [5] did it give?
**A.** 3.33 ± 0.1 µM

B2: VEGF‐B167: Vascular endothelial growth factor B isoform 167, immobilised on the sensor chip (protein)
chain: PVSQPDAPGHQRKVVSWIDVYTRATCQPREVVVPLTVELMGTVAKQLVPSCVTVQRCGGCCPDDGLECVPTGQHQVRMQILMIRYPSSQLGEMSLEEHSQCECRPKKKDSAVKPDSPRPLCPRCTQHHQRPDPRTCRCRCRRRSFLRCQGRGLELNPDTCRCRKLRR
**Q.** Which Kd [1] does the source give for B2 here?
**A.** 36 µM

B3: MGC0123 (peptide)
chain: {6‑heptynoyl}-RCRRRSFLRCQGRGLELNPDTCRCRKLRR
modifications: disulfide (positions not given here); also: cyclised by disulphide, Cys pairing not given here
**Q.** For B3, which Kd [5] is on record?
**A.** 0.39 ± 0.09 µM

B4: MGC0122 (peptide)
peptide: Hpt-DRAATPHHRPQPR
modifications: reading uncertain; also: printed as Hpt‐DRAATPHHRPQPR
notes: VEGF-B186, human, the C-terminal stretch of the proteolytically processed form, ending in arginine; Only the C-terminal QPR is ordered in the crystal structure; also called VEGF‐B derived peptide MGC0122; source: synthetic peptide; bought: Peptide Protein Research (PeptideSynthetics), >95 % purity by HPLC
**Q.** How did the Kd [5] turn out when B4 was run?
**A.** 9.55 ± 0.17 µM

**Q.** Which Kd [6] does the source give for B5 here?
**A.** 36 µM

**Q.** And the Kd [7]?
**A.** 9 µM

From PMC8776337, “Peptides Derived from Vascular Endothelial Growth Factor B Show Potent Binding to Neuropilin‐1” (Chembiochem, 2021)
